According to the supplement of paper PMC9112550, “Optimization of the antimicrobial peptide Bac7 by deep mutational scanning” (BMC Biology, 2022):

system: Escherichia coli TOP10; assay: shrunken log2 fold change of peptide-encoding DNA abundance (4.5 h post-induction vs induction); higher = less antimicrobial activity (less host growth inhibition); conditions: time post-induction: 4.5 h; library: site-saturation at positions 5, 18, 19, 20
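Further: peptides expressed intracellularly from a pBAD plasmid library in pooled LB shake-flask culture, induced with 0.3% L-arabinose, DNA abundance read by NGS, three biological replicates, DESeq2 with apeglm shrinkage.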

Sequence | shrunken log2 fold change
RRIRGRPPRLPRPRPRPPTWPRP | 0.466
RRIRGRPPRLPRPRPRPPVYPRP | 0.352
RRIRGRPPRLPRPRPRPPWHPRP | 0.396
RRIRGRPPRLPRPRPRPPWTPRP | 0.68
RRIRGRPPRLPRPRPRPPYIPRP | -0.271
RRIRGRPPRLPRPRPRPQALPRP | 0.135
RRIRGRPPRLPRPRPRPQCSPRP | -0.0401
RRIRGRPPRLPRPRPRPQGGPRP | 0.127
RRIRGRPPRLPRPRPRPQGHPRP | 0.278
RRIRGRPPRLPRPRPRPQHIPRP | -0.281
RRIRGRPPRLPRPRPRPQHSPRP | -0.0223
RRIRGRPPRLPRPRPRPQHYPRP | -0.167
RRIRGRPPRLPRPRPRPQLDPRP | 0.646
RRIRGRPPRLPRPRPRPQLRPRP | 0.139
RRIRGRPPRLPRPRPRPQLYPRP | 0.415
RRIRGRPPRLPRPRPRPQNVPRP | 0.266
RRIRGRPPRLPRPRPRPQQLPRP | 0.487
RRIRGRPPRLPRPRPRPQQWPRP | 0.067
RRIRGRPPRLPRPRPRPQRGPRP | 0.119
RRIRGRPPRLPRPRPRPQSDPRP | 0.254
RRIRGRPPRLPRPRPRPQSKPRP | 0.348
RRIRGRPPRLPRPRPRPQSTPRP | 0.649
RRIRGRPPRLPRPRPRPQSWPRP | 0.445
RRIRGRPPRLPRPRPRPQTHPRP | 1.41
RRIRGRPPRLPRPRPRPQWMPRP | 0.115

Sequence | shrunken log2 fold change
RRIRGRPPRLPRPRPRPQYHPRP | -0.141
RRIRGRPPRLPRPRPRPRCAPRP | 1.09
RRIRGRPPRLPRPRPRPRCEPRP | 0.782
RRIRGRPPRLPRPRPRPRDRPRP | 0.789
RRIRGRPPRLPRPRPRPREAPRP | 1.31
RRIRGRPPRLPRPRPRPRFSPRP | 0.0932
RRIRGRPPRLPRPRPRPRGTPRP | 1.16
RRIRGRPPRLPRPRPRPRHIPRP | 0.192
RRIRGRPPRLPRPRPRPRHVPRP | 0.218
RRIRGRPPRLPRPRPRPRIRPRP | 0.211
RRIRGRPPRLPRPRPRPRIWPRP | 0.836
RRIRGRPPRLPRPRPRPRLAPRP | 1.35
RRIRGRPPRLPRPRPRPRLSPRP | 0.313
RRIRGRPPRLPRPRPRPRNVPRP | 0.642
RRIRGRPPRLPRPRPRPRQAPRP | 0.93
RRIRGRPPRLPRPRPRPRQQPRP | 0.614
RRIRGRPPRLPRPRPRPRTDPRP | 1.06
RRIRGRPPRLPRPRPRPRTEPRP | 0.755
RRIRGRPPRLPRPRPRPRTTPRP | 1.06
RRIRGRPPRLPRPRPRPRVGPRP | 1.02
RRIRGRPPRLPRPRPRPRVKPRP | 0.856
RRIRGRPPRLPRPRPRPRWEPRP | 0.946
RRIRGRPPRLPRPRPRPRWGPRP | 0.852
RRIRGRPPRLPRPRPRPRWLPRP | 0.527
RRIRGRPPRLPRPRPRPRYMPRP | -0.0195

Sequence | shrunken log2 fold change
RRIRGRPPRLPRPRPRPRYTPRP | 0.178
RRIRGRPPRLPRPRPRPRYVPRP | -0.0805
RRIRGRPPRLPRPRPRPRYWPRP | 0.248
RRIRGRPPRLPRPRPRPSAYPRP | 1.07
RRIRGRPPRLPRPRPRPSCHPRP | 0.175
RRIRGRPPRLPRPRPRPSCWPRP | 0.413
RRIRGRPPRLPRPRPRPSDHPRP | 0.0544
RRIRGRPPRLPRPRPRPSGCPRP | 0.477
RRIRGRPPRLPRPRPRPSGGPRP | 0.391
RRIRGRPPRLPRPRPRPSGWPRP | 1.52
RRIRGRPPRLPRPRPRPSHPPRP | 0.372
RRIRGRPPRLPRPRPRPSIKPRP | 0.47
RRIRGRPPRLPRPRPRPSKPPRP | 0.218
RRIRGRPPRLPRPRPRPSLAPRP | 1.09
RRIRGRPPRLPRPRPRPSLDPRP | 0.607
RRIRGRPPRLPRPRPRPSLGPRP | 0.488
RRIRGRPPRLPRPRPRPSNGPRP | 2.8
RRIRGRPPRLPRPRPRPSNWPRP | 1.12
RRIRGRPPRLPRPRPRPSPWPRP | 0.392
RRIRGRPPRLPRPRPRPSQWPRP | 0.101
RRIRGRPPRLPRPRPRPSRMPRP | 0.22
RRIRGRPPRLPRPRPRPSRRPRP | 0.647
RRIRGRPPRLPRPRPRPSSHPRP | -0.0172
RRIRGRPPRLPRPRPRPSVQPRP | -0.0165
RRIRGRPPRLPRPRPRPSVYPRP | 0.286

Sequence | shrunken log2 fold change
RRIRGRPPRLPRPRPRPSWCPRP | 0.013
RRIRGRPPRLPRPRPRPSWVPRP | 0.0128
RRIRGRPPRLPRPRPRPSYNPRP | 0.0742
RRIRGRPPRLPRPRPRPSYPPRP | -0.215
RRIRGRPPRLPRPRPRPTAMPRP | 2.78
RRIRGRPPRLPRPRPRPTASPRP | 1.49
RRIRGRPPRLPRPRPRPTATPRP | 3.4
RRIRGRPPRLPRPRPRPTCVPRP | 1.04
RRIRGRPPRLPRPRPRPTDEPRP | 0.573
RRIRGRPPRLPRPRPRPTDNPRP | 0.283
RRIRGRPPRLPRPRPRPTEFPRP | 0.327
RRIRGRPPRLPRPRPRPTELPRP | 0.261
RRIRGRPPRLPRPRPRPTENPRP | 0.682
RRIRGRPPRLPRPRPRPTFLPRP | 0.356
RRIRGRPPRLPRPRPRPTFMPRP | 0.327
RRIRGRPPRLPRPRPRPTGKPRP | 0.899
RRIRGRPPRLPRPRPRPTGRPRP | 0.907
RRIRGRPPRLPRPRPRPTHLPRP | 0.359
RRIRGRPPRLPRPRPRPTICPRP | 0.601
RRIRGRPPRLPRPRPRPTISPRP | 0.534
RRIRGRPPRLPRPRPRPTKGPRP | 0.2
RRIRGRPPRLPRPRPRPTKHPRP | 0.385
RRIRGRPPRLPRPRPRPTLHPRP | 0.896
RRIRGRPPRLPRPRPRPTLRPRP | 0.793
RRIRGRPPRLPRPRPRPTMNPRP | 0.709

Sequence | shrunken log2 fold change
RRIRGRPPRLPRPRPRPTNIPRP | 0.298
RRIRGRPPRLPRPRPRPTNYPRP | 1.07
RRIRGRPPRLPRPRPRPTPHPRP | 0.906
RRIRGRPPRLPRPRPRPTPMPRP | 0.887
RRIRGRPPRLPRPRPRPTRQPRP | 0.577
RRIRGRPPRLPRPRPRPTTYPRP | 0.214
RRIRGRPPRLPRPRPRPTWNPRP | 0.359
RRIRGRPPRLPRPRPRPTYAPRP | 0.436
RRIRGRPPRLPRPRPRPTYEPRP | 0.318
RRIRGRPPRLPRPRPRPTYQPRP | 0.169
RRIRGRPPRLPRPRPRPVEVPRP | 1.03
RRIRGRPPRLPRPRPRPVGHPRP | 0.453
RRIRGRPPRLPRPRPRPVLHPRP | -0.0969
RRIRGRPPRLPRPRPRPVNEPRP | 0.517
RRIRGRPPRLPRPRPRPVNWPRP | 0.302
RRIRGRPPRLPRPRPRPVQVPRP | 0.215
RRIRGRPPRLPRPRPRPVRRPRP | 0.977
RRIRGRPPRLPRPRPRPVSSPRP | 0.0973
RRIRGRPPRLPRPRPRPVSWPRP | 1.06
RRIRGRPPRLPRPRPRPVTCPRP | 0.146
RRIRGRPPRLPRPRPRPVTLPRP | 0.149
RRIRGRPPRLPRPRPRPVWKPRP | 0.113
RRIRGRPPRLPRPRPRPVYNPRP | 0.0349
RRIRGRPPRLPRPRPRPVYSPRP | -0.36
RRIRGRPPRLPRPRPRPVYVPRP | 0.0272

Sequence | shrunken log2 fold change
RRIRGRPPRLPRPRPRPWACPRP | 0.216
RRIRGRPPRLPRPRPRPWAKPRP | -0.0167
RRIRGRPPRLPRPRPRPWDIPRP | 0.212
RRIRGRPPRLPRPRPRPWDVPRP | -0.00788
RRIRGRPPRLPRPRPRPWFEPRP | -0.111
RRIRGRPPRLPRPRPRPWFFPRP | 0.169
RRIRGRPPRLPRPRPRPWFMPRP | -0.384
RRIRGRPPRLPRPRPRPWFWPRP | 0.6
RRIRGRPPRLPRPRPRPWHQPRP | 1.75
RRIRGRPPRLPRPRPRPWIQPRP | 0.0532
RRIRGRPPRLPRPRPRPWKEPRP | 0.275
RRIRGRPPRLPRPRPRPWKLPRP | 0.0361
RRIRGRPPRLPRPRPRPWMMPRP | -0.0114
RRIRGRPPRLPRPRPRPWNNPRP | 0.139
RRIRGRPPRLPRPRPRPWPPPRP | 0.663
RRIRGRPPRLPRPRPRPWQCPRP | 0.0158
RRIRGRPPRLPRPRPRPWRAPRP | 0.311
RRIRGRPPRLPRPRPRPWRMPRP | -0.000462
RRIRGRPPRLPRPRPRPWRTPRP | -0.0149
RRIRGRPPRLPRPRPRPWSEPRP | 0.127
RRIRGRPPRLPRPRPRPWTPPRP | 0.75
RRIRGRPPRLPRPRPRPWVGPRP | 0.12
RRIRGRPPRLPRPRPRPWVPPRP | 0.0241
RRIRGRPPRLPRPRPRPWVRPRP | 0.151
RRIRGRPPRLPRPRPRPWWMPRP | 0.322
